From CN116444667A (SHANGHAI IASO BIOTECH CO LTD, dated 2023)

Tests used:
[1] = molecular target: T1, Human Latent GDF-2/BMP-9 Protein, His tag, Acro, GD2-H52H3 (human, UniProt Q9UK05 23-429); assay: phage ELISA
T1 construct: Bought protein, latent form; not shown: His tag
T1 sequence (looked up): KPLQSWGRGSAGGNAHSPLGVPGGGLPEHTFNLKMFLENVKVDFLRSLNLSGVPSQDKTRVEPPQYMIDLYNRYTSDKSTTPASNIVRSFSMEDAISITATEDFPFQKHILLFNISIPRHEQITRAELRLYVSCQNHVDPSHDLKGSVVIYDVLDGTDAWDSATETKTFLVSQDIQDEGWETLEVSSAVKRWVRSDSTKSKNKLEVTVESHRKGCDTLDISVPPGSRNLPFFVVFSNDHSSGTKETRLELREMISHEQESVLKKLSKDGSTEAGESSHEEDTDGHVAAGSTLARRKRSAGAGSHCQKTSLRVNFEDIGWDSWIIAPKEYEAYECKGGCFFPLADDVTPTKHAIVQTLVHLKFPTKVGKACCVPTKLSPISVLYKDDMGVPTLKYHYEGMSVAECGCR

[2] = molecular target: T2, Biotinylated CD39 Protein, hFc Tag, KACTUS, CD9-HM239B (UniProt P49961 38-478, biotinylated); assay: phage ELISA
T2 construct: Control antigen; also called CD39-bio-hFc; 负淘选抗原; not shown: hFc tag
T2 sequence (looked up): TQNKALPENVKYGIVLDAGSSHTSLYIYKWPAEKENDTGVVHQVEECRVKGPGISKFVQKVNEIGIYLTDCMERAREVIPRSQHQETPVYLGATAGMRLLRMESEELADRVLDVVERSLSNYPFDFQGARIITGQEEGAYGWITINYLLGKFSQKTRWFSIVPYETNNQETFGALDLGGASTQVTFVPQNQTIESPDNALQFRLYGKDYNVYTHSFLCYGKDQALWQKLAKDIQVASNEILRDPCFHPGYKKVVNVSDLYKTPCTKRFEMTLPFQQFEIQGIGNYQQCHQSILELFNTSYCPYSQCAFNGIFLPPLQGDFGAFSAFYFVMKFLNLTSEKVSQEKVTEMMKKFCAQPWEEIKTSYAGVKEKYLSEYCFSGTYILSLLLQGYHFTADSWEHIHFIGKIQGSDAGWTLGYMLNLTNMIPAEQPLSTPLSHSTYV

[3] = molecular target: T3, Biotinylated Human GDF15 Protein (Primary Amine Labeling), KACTUS, GDF-HM215B (human, UniProt Q99988 197-308, biotinylated (primary amine labeling)); assay: phage ELISA
T3 construct: Bought protein; also called human GDF15-bio-hFc; humanGDF15-bio-hFc; not shown: hFc tag
T3 sequence (looked up): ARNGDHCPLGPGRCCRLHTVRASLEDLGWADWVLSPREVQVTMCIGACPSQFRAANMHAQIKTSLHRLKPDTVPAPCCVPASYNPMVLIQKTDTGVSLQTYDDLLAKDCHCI

[4] = molecular target: T4, Streptavidin (SA蛋白), Pierce, 21125 (UniProt P22629 37-163, limits assumed); assay: phage ELISA
T4 construct: Control antigen in the specificity ELISA; also called Strepavidin

[5] = molecular target: T5, GDF15 hFc tag, KACTUS, GDF-HM215 (UniProt Q99988 197-308); assay: competition ELISA: GDF15 hFc coated, antibody titrated against GFRAL His tag (competitor), anti-His HRP
T5 construct: also called GDF15蛋白; not shown: hFc tag
T5 sequence (looked up): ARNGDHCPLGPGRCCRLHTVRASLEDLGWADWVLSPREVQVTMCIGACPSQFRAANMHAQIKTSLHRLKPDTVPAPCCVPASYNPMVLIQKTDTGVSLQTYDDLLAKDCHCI

T4 sequence (P22629 37-163 limits assumed): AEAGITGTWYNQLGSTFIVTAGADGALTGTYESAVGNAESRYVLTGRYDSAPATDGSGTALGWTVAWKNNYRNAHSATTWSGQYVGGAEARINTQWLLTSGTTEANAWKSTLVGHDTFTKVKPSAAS

B1: Clone 68 (噬菌体单克隆) (other)
VH: QVQLVQSGAEVKKPGASVKVSCKASGYTFTNYGINWVRQAPGQGLEWMGWISAYNGYTDYAQKLQGRVSMTTDTSTSTVYMELRSLRSDDTAVYYCARDDAINGGDYWGQGTLVTVSS
VL: not shown
- binding result [1]: no binding
- binding result [2]: no binding
- binding result [3]: binds
- binding result [4]: no binding

B2: Clone 68 抗GDF15 IgG (human IgG4) (Fc fusion)
chain: QVQLVQSGAEVKKPGASVKVSCKASGYTFTNYGINWVRQAPGQGLEWMGWISAYNGYTDYAQKLQGRVSMTTDTSTSTVYMELRSLRSDDTAVYYCARDDAINGGDYWGQGTLVTVSSTSGGGGSGGGGSGGGGSELSYVLTQPPSASGTPGQRVTISCSGSSSNIGINTVNWYQQLPGTAPKLLIYINNQRPSGVPDRFSGSKSGTSASLAISGLQSEDEADYYCAAWDDSLNAYVFGSGTKVTVL
notes: also called GDF15 mAb; not shown: human IgG4 Fc
- EC50 [5]: 1.4 nM
